# Measured values from the supplement of paper PMC10126150.
# ± gives the standard deviation of the averaged measurements.
# Test system: ATP
# Test: switch fluorescence ratio, 500 uM ATP over buffer (Cy3 cluster intensity, sum of 5 cycles each) (fold (ratio)); higher = stronger signal-on switching upon ATP binding; sequences stand for … in TCGTCGGCAGCGTCAGATGTGTATAAGAGACAGTTTTTTTTTTTTTTTTTTTTTTTTT…TC
# Conditions: aptamer strand: ATP DNA aptamer (quencher-CACCTGGGGGAGTATTGCGGAGGAAGG + anchor), 100 nM annealed; ATP concentration: 500 uM
# Procedure, shortened: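 Per cluster, summed Cy3 intensity from the target cycles was divided by that from the buffer cycles to give the fluorescence ratio, then averaged per switch-domain sequence. Clusters outside 100-1000 RFU were excluded. The Cy3-labelled switching-strand clusters, on a modified Illumina MiSeq flow-cell, were annealed to 100 nM quencher-labelled ATP aptamer and imaged in selection buffer, then after 15 min with 500 uM ATP at 22 °C, for five cycles with NaOH stripping and re-annealing between them.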
# 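Also: ATP exposure 15 min at 22 °C before imaging.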
row,Sequence,switch fluorescence ratio
1,AATAGGGTTT,0.967 ± 0.011
2,AATAGTATAG,0.966 ± 0.02
3,AATAGTGGTG,1 ± 0.022
4,AATAGTTTCA,1.01 ± 0.014
5,AATATAGAAG,0.984 ± 0.033
6,AATATAGAGA,1.01 ± 0.011
7,AATATAGGAC,0.972 ± 0.013
8,AATATAGGTA,1.02 ± 0.011
9,AATATAGTAT,0.998 ± 0.034
10,AATATATTTT,0.999 ± 0.047
11,AATATGCAGG,0.9657 ± 0.0034
12,AATATGGCCG,0.985 ± 0.037
13,AATATGTGTT,1.02 ± 0.031
14,AATATTATGA,1.01 ± 0.012
15,AATATTGAAC,0.99 ± 0.036
16,AATATTGTGG,0.974 ± 0.019
17,AATATTTAGA,0.9837 ± 0.0059
18,AATATTTTGA,1.02 ± 0.016
19,AATCAAGAGT,1.028 ± 0.0031
20,AATCACGGAG,1.019 ± 0.0061
21,AATCATAGTT,1 ± 0.014
22,AATCATGGTT,1 ± 0.028
23,AATCATGTTG,0.981 ± 0.033

row,Sequence,switch fluorescence ratio
1,AATCCAATGT,1.003 ± 0.0069
2,AATCCGGGGG,0.9661 ± 0.0022
3,AATCCGTGTG,1.01 ± 0.019
4,AATCGAGGGA,1 ± 0.027
5,AATCGAGTCC,1.107 ± 0.011
6,AATCGGAGCT,1.09 ± 0.026
7,AATCGGATAA,1.05 ± 0.019
8,AATCGGCACG,1.01 ± 0.02
9,AATCGGGGGA,1.01 ± 0.048
10,AATCGGGTGT,1.11 ± 0.047
11,AATCGGGTTG,1 ± 0.019
12,AATCGGTTCT,0.979 ± 0.05
13,AATCGGTTGG,0.966 ± 0.019
14,AATCGTCTGG,0.993 ± 0.019
15,AATCGTGGTA,1.01 ± 0.029
16,AATCTCGGCC,0.986 ± 0.015
17,AATCTGGGTA,0.991 ± 0.016
18,AATCTGTGAA,1 ± 0.012
19,AATCTTCTGT,0.982 ± 0.04
20,AATGAACGGG,0.981 ± 0.0089
21,AATGAACTCT,1.02 ± 0.034
22,AATGAATAGA,1.012 ± 0.008
23,AATGAATGGG,0.981 ± 0.018

row,Sequence,switch fluorescence ratio
1,AATGAATTTG,0.975 ± 0.043
2,AATGACTCGT,0.974 ± 0.01
3,AATGAGGCTT,0.996 ± 0.011
4,AATGAGGGAG,0.995 ± 0.01
5,AATGAGTCG,0.991 ± 0.028
6,AATGAGTGGG,1 ± 0.041
7,AATGAGTTTG,0.991 ± 0.019
8,AATGATGCCG,0.9864 ± 0.008
9,AATGATTTTG,0.9765 ± 0.0065
10,AATGCAACTT,1.01 ± 0.032
11,AATGCAGAGT,0.983 ± 0.012
12,AATGCCTTTG,1.02 ± 0.035
13,AATGCGGTTC,0.9709 ± 0.0026
14,AATGCTCGGA,0.981 ± 0.02
15,AATGCTCGTA,1.01 ± 0.023
16,AATGCTTGAG,1.05 ± 0.08
17,AATGGAAATC,1.003 ± 0.0086
18,AATGGAAGGC,1.09 ± 0.07
19,AATGGCATCG,1.02 ± 0.011
20,AATGGCGCGC,0.992 ± 0.017
21,AATGGCGGGT,0.996 ± 0.034
22,AATGGCTCGC,0.996 ± 0.061
23,AATGGGCACA,1 ± 0.042

row,Sequence,switch fluorescence ratio
1,AATGGGCTAG,0.993 ± 0.059
2,AATGGGGATC,0.984 ± 0.062
3,AATGGGGATT,1.01 ± 0.035
4,AATGGGGGTT,1.02 ± 0.037
5,AATGGGTCTA,0.985 ± 0.02
6,AATGGGTCTG,0.978 ± 0.052
7,AATGGGTTAT,0.992 ± 0.025
8,AATGGGTTCC,1.027 ± 0.0044
9,AATGGGTTCT,0.998 ± 0.079
10,AATGGGTTGT,1.02 ± 0.032
11,AATGGTACGA,1 ± 0.035
12,AATGGTCATG,0.993 ± 0.075
13,AATGGTGCGC,0.984 ± 0.017
14,AATGGTGTAA,0.99259 ± 0.00066
15,AATGGTTAAG,1 ± 0.054
16,AATGGTTTTG,0.9921 ± 0.0034
17,AATGTCGCTG,1.003 ± 0.0018
18,AATGTCTAGA,0.975 ± 0.023
19,AATGTCTTTG,0.984 ± 0.013
20,AATGTGAGGG,0.9772 ± 0.0092
21,AATGTGCATA,0.988 ± 0.011
22,AATGTGCCCA,0.9775 ± 0.007
23,AATGTGCCGG,1.01 ± 0.019

row,Sequence,switch fluorescence ratio
1,AATGTGGGGG,0.996 ± 0.018
2,AATGTGTATG,0.991 ± 0.033
3,AATGTTAGAA,0.99 ± 0.05
4,AATGTTTCGG,0.977 ± 0.022
5,AATGTTTGAC,0.977 ± 0.038
6,AATGTTTGCT,1 ± 0.018
7,AATTAAGAGG,1 ± 0.011
8,AATTAATGAT,0.981 ± 0.029
9,AATTACCAAA,1.01 ± 0.072
10,AATTACCGGT,0.979 ± 0.045
11,AATTAGAAGC,0.9962 ± 0.0075
12,AATTAGAGGG,0.984 ± 0.046
13,AATTAGTGTT,0.99 ± 0.02
14,AATTAGTTGG,0.9923 ± 0.0071
15,AATTAGTTGT,0.9918 ± 0.0084
16,AATTATAAGA,0.996 ± 0.027
17,AATTATCTCG,1.01 ± 0.018
18,AATTATTGAG,1.02 ± 0.038
19,AATTCAGGCA,0.98668 ± 0.00049
20,AATTCAGTGT,1.01 ± 0.025
21,AATTCATGTA,0.9886 ± 0.0064
22,AATTCCGGTC,1.093 ± 0.0066
23,AATTCCTATG,1.04 ± 0.05

row,Sequence,switch fluorescence ratio
1,AATTCTAAAC,0.9881 ± 0.0038
2,AATTCTGAGG,0.977 ± 0.025
3,AATTGAAGAT,1.03 ± 0.039
4,AATTGACTGT,1.07 ± 0.025
5,AATTGAGGCG,1.02 ± 0.089
6,AATTGCACCT,1.22 ± 0.05
7,AATTGCGTGG,0.988 ± 0.017
8,AATTGCTTTC,1.06 ± 0.013
9,AATTGGGGCG,0.969 ± 0.025
10,AATTGGGGGC,0.98 ± 0.022
11,AATTGGGGTG,1.06 ± 0.011
12,AATTGGTAGC,0.966 ± 0.015
13,AATTGGTAGG,1 ± 0.072
14,AATTGGTGAA,1.01 ± 0.014
15,AATTGTACGG,1.04 ± 0.013
16,AATTGTGGCT,1 ± 0.025
17,AATTGTGGGG,0.983 ± 0.057
18,AATTGTGTAT,0.973 ± 0.026
19,AATTGTTGGC,0.999 ± 0.035
20,AATTTACAGC,1.03 ± 0.042
21,AATTTACGAA,1.01 ± 0.019
22,AATTTACGGA,1.06 ± 0.037
23,AATTTAGCCG,0.977 ± 0.077

row,Sequence,switch fluorescence ratio
1,AATTTAGGGG,0.989 ± 0.03
2,AATTTATCAG,1.03 ± 0.039
3,AATTTATTGT,1.003 ± 0.0013
4,AATTTCAAGG,1 ± 0.048
5,AATTTCACCA,0.999 ± 0.013
6,AATTTCGGAC,1.07 ± 0.071
7,AATTTCGGAG,1.02 ± 0.026
8,AATTTGAGGG,0.979 ± 0.016
9,AATTTGATC,1.03 ± 0.021
10,AATTTGCATG,0.978 ± 0.013
11,AATTTGCGGG,0.98 ± 0.024
12,AATTTGCTTT,0.986 ± 0.036
13,AATTTGGCAT,1.012 ± 0.0063
14,AATTTGGCCT,1.05 ± 0.035
15,AATTTGGGGA,0.968 ± 0.013
16,AATTTGTAGT,1.03 ± 0.025
17,AATTTGTGTG,0.99 ± 0.034
18,AATTTGTTTT,1.02 ± 0.028
19,AATTTTAGCC,0.987 ± 0.011
